The target in series [1] is AF647-TFIIB (TFIIB-SNAP);TBP;TFIIF;RNA polymerase II (human;human;human;human, UniProt Q00403;P20226;P35269;P13984;P24928;P30876;P19387;O15514;P19388;P61218;P62487;P52 …, |||). The series can be described thus: EMSA. Background: Mobility shift assays separate free from complexed probe on a gel.
Series [2] has as its target TFIIB (untagged);TBP;TFIIF;RNA polymerase II (human;human;human;human, UniProt Q00403;P20226;P35269;P13984;P24928;P30876;P19387;O15514;P19388;P61218;P62487;P52 …, |||). The series can be described thus: EMSA.

The record followed here is paper doi:10.1101/2019.12.19.882902.

Sequence of TFIIB (untagged);TBP;TFIIF;RNA polymerase II (Q00403 whole entry, chain 1 of 2): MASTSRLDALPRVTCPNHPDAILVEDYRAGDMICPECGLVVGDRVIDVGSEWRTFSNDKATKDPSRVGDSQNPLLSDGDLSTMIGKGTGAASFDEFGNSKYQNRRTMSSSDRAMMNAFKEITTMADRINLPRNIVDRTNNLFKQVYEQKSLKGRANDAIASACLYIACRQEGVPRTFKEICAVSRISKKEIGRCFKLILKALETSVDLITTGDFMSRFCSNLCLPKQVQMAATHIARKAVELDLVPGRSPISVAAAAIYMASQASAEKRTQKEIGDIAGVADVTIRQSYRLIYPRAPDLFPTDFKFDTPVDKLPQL
Sequence of TFIIB (untagged);TBP;TFIIF;RNA polymerase II (P20226 whole entry, chain 2 of 2): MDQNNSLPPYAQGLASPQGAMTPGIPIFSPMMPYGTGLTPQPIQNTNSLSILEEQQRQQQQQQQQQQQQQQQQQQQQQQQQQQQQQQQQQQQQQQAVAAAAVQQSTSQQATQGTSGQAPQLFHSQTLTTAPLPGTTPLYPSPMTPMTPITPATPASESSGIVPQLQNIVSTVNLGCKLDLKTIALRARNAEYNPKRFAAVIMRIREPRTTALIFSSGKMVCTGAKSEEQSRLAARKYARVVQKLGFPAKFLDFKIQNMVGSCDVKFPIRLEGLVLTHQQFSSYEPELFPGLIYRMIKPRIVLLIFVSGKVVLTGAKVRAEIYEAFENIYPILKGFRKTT
Sequence of AF647-TFIIB (TFIIB-SNAP);TBP;TFIIF;RNA polymerase II (Q00403 whole entry, chain 1 of 2): as the sequence (Q00403 whole entry, chain 1 of 2) above
Sequence of AF647-TFIIB (TFIIB-SNAP);TBP;TFIIF;RNA polymerase II (P20226 whole entry, chain 2 of 2): as the sequence (P20226 whole entry, chain 2 of 2) above

B1: three piece AdMLP DNA (-40 to +37), pre-melted bubble (dsDNA)
DNA 1: AAGGGGGGCTATAAAAGGGGGTGGGGGCGCGAAGCAGGAGTAGACTATCTTTAATCACTA
DNA 2: CCTGAGGTTAGTGTGAGTAGTGATTAAAGATAGTGATGAGGACGAACGCGCCCCCACCCCCTTTTATAGCCCCCCTT
DNA 3: CTCACACTAACCTCAGG
For the molecule B1, the binding result in series [1] and in series [2] was “binds” each time.
